Test results taken from publication PMC6728143, “Distinct mechanisms of microRNA sorting into cancer cell-derived extracellular vesicle subtypes”.

T1: Lupus La protein (La) (Homo sapiens, UniProt P05455 1-408)
T1 sequence: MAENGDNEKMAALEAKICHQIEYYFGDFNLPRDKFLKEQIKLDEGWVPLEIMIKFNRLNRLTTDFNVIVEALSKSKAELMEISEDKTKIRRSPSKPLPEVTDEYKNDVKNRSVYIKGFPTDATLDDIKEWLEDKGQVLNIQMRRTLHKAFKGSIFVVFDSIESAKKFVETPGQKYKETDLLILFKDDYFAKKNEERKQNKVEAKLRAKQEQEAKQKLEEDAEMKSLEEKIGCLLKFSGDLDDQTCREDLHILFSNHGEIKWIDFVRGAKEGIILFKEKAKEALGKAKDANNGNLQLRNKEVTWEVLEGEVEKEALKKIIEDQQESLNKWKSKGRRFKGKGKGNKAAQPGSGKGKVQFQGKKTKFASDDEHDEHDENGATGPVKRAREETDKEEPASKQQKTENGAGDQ


How the values were obtained:
Lupus La protein (La) [1] = molecular target: T1, Lupus La protein (La); test: EMSA; EMSA: 1 nM RNA, La 250 pM-2 uM; 25 mM Tris pH 8, 100 mM KCl, 1.5 mM MgCl2, 0.2 mM EGTA, 0.05% NP-40, 50 ug/ml heparin; 30 C 30 min, then ice 10 min; 6% gel at 4 C; Hill fit; settings: protein: recombinant; tags: N-terminal 6xHis; label: 5' IRDye800CW
Lupus La protein (La) [2] = molecular target: T1, Lupus La protein (La); test: as above; settings: protein: recombinant; tags: N-terminal 6xHis; label: 5' IRDye800CW; remark: listed apart in the source

Row | Binder | Kd (Lupus La protein (La) [1]) [nM] | binding signal (Lupus La protein (La) [2])
1 | UGGAGUGUGACAAUGGUGUUUG (ssRNA) [miR-122-5p WT] | 4.8 | 
2 | ACACGUGUGACAAUGGUGUUUG (ssRNA) [miR-122 5'mut] |  | ~10 fold lower affinity than WT
3 | UGGAGUGUGACAAUGGUGAAAG (ssRNA) [miR-122 3'mut] | 538 | 
